Tests used:
[1] = target: Recombinant A/South Carolina/1/1918 virus HA (influenza A/South Carolina/1/1918 …, UniProt Q9WFX3 18-520)
[2] = target: T1, 1918 HA displayed on 1918 virus-like particles, reconstituted 1918 virus or transfected cells (influenza A/South Carolina/1/1918 …, UniProt Q9WFX3 18-566); test: cell-based or functional assay
[3] = target: T1, 1918 HA displayed on 1918 virus-like …; test: cell-based or functional assay; remark: listed apart in the source
[4] = target: T1, 1918 HA displayed on 1918 virus-like …

Recombinant A/South Carolina/1/1918 virus HA, sequence (Q9WFX3 18-520 limits assumed): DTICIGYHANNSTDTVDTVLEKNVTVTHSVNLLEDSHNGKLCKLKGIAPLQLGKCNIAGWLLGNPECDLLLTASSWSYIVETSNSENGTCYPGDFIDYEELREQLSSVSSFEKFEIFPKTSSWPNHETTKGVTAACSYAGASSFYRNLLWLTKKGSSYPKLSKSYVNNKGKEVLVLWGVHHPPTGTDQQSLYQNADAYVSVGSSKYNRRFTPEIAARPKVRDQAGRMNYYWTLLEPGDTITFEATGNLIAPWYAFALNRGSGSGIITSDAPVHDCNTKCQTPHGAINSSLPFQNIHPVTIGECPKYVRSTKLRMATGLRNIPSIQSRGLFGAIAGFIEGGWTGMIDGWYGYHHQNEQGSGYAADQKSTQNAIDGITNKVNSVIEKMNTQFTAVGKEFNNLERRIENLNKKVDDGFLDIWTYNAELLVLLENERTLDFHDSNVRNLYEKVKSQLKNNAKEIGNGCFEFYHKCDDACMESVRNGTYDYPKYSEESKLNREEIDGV
T1 sequence (Q9WFX3 18-566): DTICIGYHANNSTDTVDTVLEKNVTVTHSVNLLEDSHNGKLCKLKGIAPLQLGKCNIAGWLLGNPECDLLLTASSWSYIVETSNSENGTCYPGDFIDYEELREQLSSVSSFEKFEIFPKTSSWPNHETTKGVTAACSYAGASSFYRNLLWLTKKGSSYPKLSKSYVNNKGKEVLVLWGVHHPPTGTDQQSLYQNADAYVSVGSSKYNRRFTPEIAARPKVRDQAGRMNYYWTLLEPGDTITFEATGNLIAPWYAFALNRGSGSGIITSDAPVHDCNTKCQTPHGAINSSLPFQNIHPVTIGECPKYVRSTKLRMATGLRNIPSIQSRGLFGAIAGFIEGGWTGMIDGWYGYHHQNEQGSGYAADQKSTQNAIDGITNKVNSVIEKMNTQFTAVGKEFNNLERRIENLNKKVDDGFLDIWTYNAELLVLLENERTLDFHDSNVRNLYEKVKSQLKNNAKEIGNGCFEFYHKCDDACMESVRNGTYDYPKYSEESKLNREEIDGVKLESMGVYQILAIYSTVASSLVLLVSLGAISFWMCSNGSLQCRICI

Row | Binder | Kd [1] | koff [1] | kon [1] | Specific HAI activity [2] | HAI, specific activity of indicated mAb [3] | EC50 (read off the curve) [4]
1 | mAb 2D1 (antibody, V domains shown) VH: EVQLVESGPALVKPTQTLTLTCSFSGFSLSTSGMSVSWIRQPPGKALEWLALIDWDDDTYYITYSSSLKTRLTISKDTSKSQVVLTMTNMDPVDTATYYCARTLRVSGDYVRDFDLWGRGTLVTVS VL: not shown | 0.25 nM | 1e-05 s⁻¹ | 39000 M⁻¹ s⁻¹ | 0.01 µg/mL | 0.025 µg/mL | 
2 | mAb 1I20 (antibody, V domains shown) VH: EVQLVESGGGVVQPGGSLRLSCIASAFNLGIFGMHWVRQAPGKGLEWVAFIRYDGGKTFYADSVKGRFTISRDNSKNTLYLQMNSLRTEDTALYYCARDATADYYGPGSYPNWLDPWGQGTLVTVS VL: DIRLTQSPATLSVSPGERATLSCRASHSVSRNLAWYQQKPGRAPRLLVYDTSSRATGIPARFSGSGSGTEFTLTISSLQSEDFAVYYCQQYNNWPRTFGQGTKVDIK | 0.048 nM | 1.4e-05 s⁻¹ | 290000 M⁻¹ s⁻¹ | 0.16 µg/mL | 0.28 µg/mL | 
3 | mAb 4D20 (antibody, V domains shown) VH: EVQLVESGPVLVKPTETLTVTCTVSGFSVDNDRMGVSWIRQPPGKALEWLAHIFSNDEKSYSTSLRSRLTISKDTSKRQVVLSMTDMDPVDTATYYCARAPSEYAAMDVWGQGTMVTVS VL: SYVLTQPPSVSVAPGETATVTCGGNNIGSKSVHWYQQKPGQAPVVVIYYDGDRPSGIPERFSGSNSGDTATLTISRVEAGDEADYYCLVWDYTSVHYVFGTGTKVTVLG | 0.14 nM | 1e-05 s⁻¹ | 170000 M⁻¹ s⁻¹ | 0.04 µg/mL | 0.04 µg/mL | 
4 | mAb 1F1 (antibody, V domains shown) VH: EVQLVQSGGGVVQPRRSLRLSCAASGFTFSSYAMHWVRQAPGKGLEWVAVISYDGRNKYYADSVKGRFTVSRDNSKNTLYLQMNSLRAEDTSVYYCARELLMDYYDHIGYSPGPTWGQGTLVTVSS VL: QPVLTQPPSASGSPGQRVTISCSGSSSNIGSYTVNWYQQLPGTAPKLLIYSLNQRPSGVPDRFSGSKSGTSASLAISGLQSEDEAVYYCAAWDDSLSAHVVFGGGTKLTVLG | 5.4 nM | 0.00017 s⁻¹ | 31000 M⁻¹ s⁻¹ | 0.08 µg/mL | 0.04 µg/mL | 
5 | mAb 2B12 (antibody, V domains shown) VH: EVQLQESGPGLVKPSQTLSLTCNVSGGSITGDYKWSWIRQPPGKGLEWIGHIHSTGTTYYNPSLRSRITISMDTSKNNLSLRLTSVTAADTAVYYCASHTLTSGHYPRDFDFWGQGTLVTVSS VL: SYVLTQPPSVSGTPGQRVIISCSGYSSNIGSNTVNWYQQFPGTAPRLLIYANNQRPPGVPDRFSGSKSGTSASLAISGLQSDDESDYYCAAWDDSLNGHWVFGGGTKLTVLG | 6.2 nM | 0.00012 s⁻¹ | 18000 M⁻¹ s⁻¹ | 0.31 µg/mL | 0.32 µg/mL | ~0.02 µg/mL

From patent US20120100142A1 (VANDERBILT UNIVERSITY, published 2012)
